Where a chain is given by its changes, count along the chain named.

The labels stand for the following.
B1: 200 (protein)
chain: MTTRTRILTAFLSLLAANACAADAAPAAPHTVVLRAARMFDGASGKLVDHPQLTIVGNKIVRIAQGDKAEVPAGAEVVDLGDATLLPGFIDAHVHLSGQSSDNPYGDFFDNMMRFPAEQALYGAYYARITLEAGFTSVRDVGSTDWVALGLRNAIDAGKVPGPRMLVSNYAVGSTGGHADQDPIPPHKLPLAGPLQGVCNGPEECRAAVRYQIKYGANVIKFMPSGGVLSLSDPVDAPELSQDEMNAVIGESHAWGRKVAAHAHGDKAAKMAVAAGVDSIEHGSFIEDDTLRAMKAKNVYLVPTISAIAHVEEKIGTFPPVIAEKGRAAAAHLRQTFRHAVQIGVPIALGTDAGVGAHGSNAREFRYMVENGLTPAQALLAGTANAARLLGTFDRVGTLEAGKLADVVAVPGNPIADITVTERPLFVMKDGVVVRRDAVR
modifications: exemplary polypeptide
B2: 217 (protein)
chain: B1 chain with P104W, T130E
modifications: exemplary polypeptide
B3: 210 (protein)
chain: B1 chain with H50D, P104W
modifications: exemplary polypeptide
B4: 209 (protein)
chain: B1 chain with H30R, P104W
modifications: exemplary polypeptide
B5: 203 (protein)
chain: B1 chain with P104W, I322M
modifications: exemplary polypeptide
B6: 211 (protein)
chain: B1 chain with H50N, P104W
modifications: exemplary polypeptide
B7: 218 (protein)
chain: B1 chain with P104W, H187D
modifications: exemplary polypeptide
B8: 208 (protein)
chain: B1 chain with H30P, P104W
modifications: exemplary polypeptide
B9: 206 (protein)
chain: B1 chain with H30E, P104W
modifications: exemplary polypeptide
B10: 234 (protein)
chain: B1 chain with P104W, H253A
modifications: exemplary polypeptide
B11: 219 (protein)
chain: B1 chain with P104W, H187E
modifications: exemplary polypeptide
B12: 216 (protein)
chain: B1 chain with N103Q, P104W
modifications: exemplary polypeptide
B13: 201 (protein)
chain: B1 chain with P104Y
modifications: exemplary polypeptide
B14: 207 (protein)
chain: B1 chain with H30K, P104W
modifications: exemplary polypeptide
B15: 231 (protein)
chain: B1 chain with P104W, D233N
modifications: exemplary polypeptide
B16: 214 (protein)
chain: B1 chain with N103D, P104W
modifications: exemplary polypeptide
B17: 220 (protein)
chain: B1 chain with P104W, H187G
modifications: exemplary polypeptide
B18: 227 (protein)
chain: B1 chain with P104W, G226S
modifications: exemplary polypeptide
B19: 213 (protein)
chain: B1 chain with S100D, P104W
modifications: exemplary polypeptide
B20: 230 (protein)
chain: B1 chain with P104W, S230T
modifications: exemplary polypeptide
B21: 202 (protein)
chain: B1 chain with P104W, I322L
modifications: exemplary polypeptide
B22: 225 (protein)
chain: B1 chain with P104W, G226A
modifications: exemplary polypeptide
B23: 224 (protein)
chain: B1 chain with P104W, K188R
modifications: exemplary polypeptide

The nature of the first series: OTA detoxification activity assay (specific activity, fluorescence reduction ex/em 390/450 nm). Conditions: pH 6.0; SEQ ID NO: 1 = 100%. It counts as biochemical. The method in brief: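 Recombinant enzyme preparation with 200 ng/mL OTA in 100 mM sodium phosphate, at pH 6.0 and pH 7.5, 37° C. Degradation followed as the fall in fluorescence at ex/em 390/450 nm. Specific activity taken from the initial linear slope; one unit degrades 1 μmol OTA per min at a starting OTA of […].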
Consider B1, for which the “Specific OTA detoxification activities in % compared to the enzyme of SEQ ID NO: 1, pH 6.0” value stood at 18%.
On the same count and under the same terms, next, B2: 153%; B3: 93%.
On the same count and under the same terms, in the case of B4 it was 143%.
Still for that read-out and setting: in the case of B5 it was 100%; in that of B6, 121%.
Consider B7, for which the “Specific OTA detoxification activities in % compared to the enzyme of SEQ ID NO: 1, pH 6.0” value was 104%.
Same read-out and setting: next, B8: 135%; B9: 168%; B10: 23%.
Same read-out and setting: in the case of B11 it was 87%.
Same read-out and setting: in the case of B12 it was 147%.
On to B13, for which the “Specific OTA detoxification activities in % compared to the enzyme of SEQ ID NO: 1, pH 6.0” value came to 134%.
On the same count and under the same terms, in the case of B14 it was 87%; in that of B15, 20%.
The same measure, in the same setting: in the case of B16 it was 123%; in that of B17, 85%.
For B18, the “Specific OTA detoxification activities in % compared to the enzyme of SEQ ID NO: 1, pH 6.0” value was 47%.
Still for that read-out and setting: next, B19: 76%; B20: 141%; B21: 59%.
Same read-out and setting: next, B22: 24%; B23: 169%.

Still in this series, the particulars now being: pH 7.5; SEQ ID NO: 1 = 100%.
On to B1, for which the “Specific OTA detoxification activities in % compared to the enzyme of SEQ ID NO: 1, pH 7.5” value is 25%.
On the same count and under the same terms, next, B2: 139%; B3: 102%; B4: 88%.
On the same count and under the same terms, next, B5: 70%; B6: 111%; B7: 101%.
On the same count and under the same terms, next, B8: 108%; B9: 112%.
In the case of B10, the “Specific OTA detoxification activities in % compared to the enzyme of SEQ ID NO: 1, pH 7.5” value amounted to 13%.
On the same count and under the same terms, next, B11: 88%.
On the same count and under the same terms, next, B12: 115%; B13: 121%; B14: 72%.
On the same count and under the same terms, next, B15: 22%; B16: 108%.
In the case of B17, the “Specific OTA detoxification activities in % compared to the enzyme of SEQ ID NO: 1, pH 7.5” value was determined as 83%.
Turning to B18, the “Specific OTA detoxification activities in % compared to the enzyme of SEQ ID NO: 1, pH 7.5” value came to 36%.
On the same count and under the same terms, next, B19: 39%.
With B20, the “Specific OTA detoxification activities in % compared to the enzyme of SEQ ID NO: 1, pH 7.5” value is 127%.
On the same count and under the same terms, in the case of B21 it was 47%; in that of B22, 27%; in that of B23, 132%.

A short description of a further series: Enzymatic activity comparison: activity remaining after 65° C. for 10 min at pH 6.0, relative to SEQ ID NO: 1. The format is physicochemical.
Conditions: not given
How it is done:
To compare the temperature behavior and thermostability of selected enzymes to one another, enzyme was incubated at 65° C. for 10 min at pH 6.0. The enzymatic activity remaining after incubation was compared to the remaining activity of the enzyme of SEQ ID NO: 1 after incubation, the latter being set to 100%, see Table 16.
On to B1, for which the “Enzymatic activity remaining after incubation, compared to SEQ ID NO: 1 (set to 100%)” value worked out at 88%.
Turning to B2, the “Enzymatic activity remaining after incubation, compared to SEQ ID NO: 1 (set to 100%)” value came out at 36%.
Same read-out and setting: in the case of B3 it was 39%; in that of B4, 31%.
On the same count and under the same terms, in the case of B5 it was 10%; in that of B6, 34%; in that of B7, 28%.
As to B8, the “Enzymatic activity remaining after incubation, compared to SEQ ID NO: 1 (set to 100%)” value was found to be 35%.
On the same count and under the same terms, in the case of B9 it was 42%; in that of B10, 50%.
Consider B11, for which the “Enzymatic activity remaining after incubation, compared to SEQ ID NO: 1 (set to 100%)” value came out at 38%.
The same measure, in the same setting: next, B12: 14%.
The same measure, in the same setting: in the case of B13 it was 54%; in that of B14, 37%; in that of B15, 75%.
On the same count and under the same terms, next, B16: 59%.
Consider B17, for which the “Enzymatic activity remaining after incubation, compared to SEQ ID NO: 1 (set to 100%)” value stood at 22%.
Still for that read-out and setting: next, B18: 24%.
Still for that read-out and setting: in the case of B19 it was 25%; in that of B20, 32%.
Consider B21, for which the “Enzymatic activity remaining after incubation, compared to SEQ ID NO: 1 (set to 100%)” value worked out at 25%.
On the same count and under the same terms, next, B22: 84%.
For the molecule B23, the “Enzymatic activity remaining after incubation, compared to SEQ ID NO: 1 (set to 100%)” value worked out at 40%.

Source of the values: patent publication US20240352438A1, “MEANS AND METHODS FOR DETOXIFYING OCHRATOXIN A” (DSM Austria GmbH, priority 2021, published 2024).
